Among the data in PMC11115250 are PPRE luciferase reporter in 293T cells, PPARγ co-transfected with WT ZFP407 against PPARγ alone values, retold here.

This experiment concerns the target PPARγ (plasmid-encoded, Addgene #8862) (UniProt P37238).

The substance “ZFP407 (plasmid-encoded, Origene cat. MR214555) (natural protein)” registered a PPRE luciferase reporter in 293T cells, PPARγ co-transfected with WT ZFP407 against PPARγ alone of more than 2 fold.
